Source: the supplement of paper PMC10567573

B1: ADAMTSL2 (parent)
chain: KKPPEESTCFERPCFKWYTSPWSE

Variants of: B1
Assay: protein stability index of a GFP-peptide fusion (GPS, HEK-293T) (PSI 1-6); higher = more stable
Settings: c terminus: a fixed tail appended
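Further: lentivirally expressed fusions sorted by FACS into six bins by GFP to DsRed ratio, PSI derived from sequencing read proportions per bin multiplied by bin number.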

Protein stability index, by site and new letter:
P3: C 2.08; D 2.77; E 3.04; F 2; G 2.34; H 1.84; I 1.93; K 2.18; L 2.26; M 2.29; N 2.94; Q 2.67; R 2.46; S 2.29; T 2.21; V 2.16; W 2.6; Y 1.88
P4: A 2.93; C 1.95; D 2.69; E 2.4; F 1.89; G 3.23; H 1.94; I 2.26; K 2.49; L 2.04; M 2.29; N 2.19; Q 2.72; R 2.49; S 2.21; T 3; V 2.77; W 1.75; Y 2.48
E5: A 1.92; C 2.32; D 2.08; F 1.88; G 2.2; H 2.09; I 2.16; K 1.45; L 2.33; M 1.47; N 2.29; P 1.82; Q 2; R 2.02; S 2.3; T 1.67; V 2.48; W 2.27; Y 2.01
E6: A 1.91; C 2.44; D 2.8; F 1.9; G 2.57; H 2.06; I 1.87; K 2.55; L 2.07; M 1.9; N 2.08; P 2.05; Q 2.06; R 2.05; S 1.82; T 1.84; V 2.65; W 1.87; Y 1.97
S7: A 2.31; C 2.66; D 2.4; E 2.47; F 2.11; G 2.8; H 2.51; I 2.28; K 2.21; L 1.39; M 2.08; N 2.24; P 2.21; Q 2.58; R 2.19; T 2.39; V 2.42; W 1.66; Y 2.64
T8: A 2.75; C 2.17; D 2.61; E 2.69; F 1.74; G 2.37; H 2.29; I 2.32; K 2.89; L 3.01; M 2.45; N 2.56; P 2.59; Q 2.79; R 2.14; S 2.77; V 2.28; W 1.7; Y 1.68
C9: A 2.43; D 2.97; E 3.33; F 2.3; G 2.63; H 2.36; I 2.25; K 2.69; L 2.05; M 2.8; N 2.18; P 2.7; Q 3.34; R 2.52; S 2.35; T 2.84; V 2.82; W 2.04; Y 2.54
F10: A 2.51; C 2.14; D 2.89; E 2.9; G 2.71; H 2.99; I 2.81; K 3.55; L 2.81; M 2.83; N 2.45; P 3.19; Q 2.54; S 3.46; T 3.19; V 2.86; W 2.09; Y 2.06
E11: A 2.59; C 1.49; D 2.38; F 2.19; G 1.87; H 2.27; I 1.9; K 2.11; L 1.88; M 1.98; N 2.98; P 2.46; Q 2.27; R 1.75; S 2.82; T 2.05; V 2.06
